The values below come from US20240150465A1 (Chugai, published 2024).

One assay has as its target T1, recombinant human DLL3 (human, UniProt Q9NYJ7 27-492).
T1 sequence: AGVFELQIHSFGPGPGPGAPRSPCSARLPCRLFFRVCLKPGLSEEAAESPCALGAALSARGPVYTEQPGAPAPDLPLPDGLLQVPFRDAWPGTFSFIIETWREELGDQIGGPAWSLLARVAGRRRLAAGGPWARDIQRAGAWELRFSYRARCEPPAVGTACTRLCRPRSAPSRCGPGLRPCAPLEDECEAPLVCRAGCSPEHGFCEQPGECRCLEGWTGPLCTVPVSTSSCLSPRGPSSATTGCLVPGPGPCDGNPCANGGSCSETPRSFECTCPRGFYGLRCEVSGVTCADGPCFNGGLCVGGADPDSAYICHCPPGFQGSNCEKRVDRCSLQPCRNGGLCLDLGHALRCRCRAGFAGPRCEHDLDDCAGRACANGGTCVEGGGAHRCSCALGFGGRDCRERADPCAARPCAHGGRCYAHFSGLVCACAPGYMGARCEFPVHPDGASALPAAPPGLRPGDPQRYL
In words: SPR Biacore 8K, 37 C, pH 7.4; bispecific captured on anti-human Fc, DLL3 as analyte, 1:1 model. The protocol: (§1) Binding affinity of anti-DLL3 arm in the anti-DLL3/CD3 antibodies to human or cynomolgus DLL3 at pH 7.4 were assessed at 37 degrees C. using Biacore 8K instrument (GE Healthcare). Anti-human Fc (GE Healthcare) was immobilized onto all flow cells of a CM4 sensor chip using amine coupling kit (GE Healthcare). The bispecific antibodies were captured onto the anti-Fc sensor surfaces, and then recombinant human or cynomolgus DLL3 was injected over the flow cell. All antibodies and analytes were prepared in ACES pH 7.4 containing 20 mM ACES, 150 mM NaCl, 0.05% Tween 20, 0.005% NaN₃. Sensor surface was regenerated each cycle with 3M MgCl₂.
In general terms: SPR reads the build-up and loss of mass on a sensor chip optically.

Assay [1] concerns the target T2, Cynomolgus DLL3 ECD with Myc-tag on N-terminus and His-tag on C-terminus (cynomolgus).
T2 construct: also called Myc-cynoDLL3-His; Cyno DLL3
T2 chain: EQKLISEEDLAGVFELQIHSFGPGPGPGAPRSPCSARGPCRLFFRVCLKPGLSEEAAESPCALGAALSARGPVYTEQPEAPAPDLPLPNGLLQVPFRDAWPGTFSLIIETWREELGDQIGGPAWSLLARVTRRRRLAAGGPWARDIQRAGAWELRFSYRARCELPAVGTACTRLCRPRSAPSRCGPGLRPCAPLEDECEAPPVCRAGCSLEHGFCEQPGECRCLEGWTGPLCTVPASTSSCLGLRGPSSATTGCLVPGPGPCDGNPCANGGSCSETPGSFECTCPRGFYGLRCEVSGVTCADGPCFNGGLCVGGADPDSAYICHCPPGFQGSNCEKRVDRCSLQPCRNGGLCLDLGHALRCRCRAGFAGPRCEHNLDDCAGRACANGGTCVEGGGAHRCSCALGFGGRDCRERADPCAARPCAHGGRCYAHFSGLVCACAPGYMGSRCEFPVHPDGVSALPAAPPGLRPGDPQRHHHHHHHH
The assay is described as above. The protocol: as §1

Assay [2] deals with recombinant human CD3eg protein (CD3 epsilon-gamma, heterodimer of CD3 epsilon and CD3 gamma) (human, UniProt P07766 23-126; P09693 23-116). Nature of the assay: SPR Biacore 8K, 37 C, pH 7.4; bispecific captured on anti-human Fc, human CD3eg as analyte, 1:1 model. The protocol:
as §1, with “of the anti-CD3” for “of anti-DLL3”, “arm of” for “arm in”, “anti-DLL3/CD3 bispecific” for “anti-DLL3/CD3”, “to CD3” for “to human or cynomolgus DLL3”, “7.4 was” for “7.4 were”, “human CD3eg proteins (CD3 epsilon-gamma, heterodimer of CD3 epsilon and CD3 gamma)” for “human or cynomolgus DLL3”

Chain of recombinant human CD3eg protein (CD3 epsilon-gamma, heterodimer of CD3 epsilon and CD3 gamma) (P07766 23-126 limits assumed, chain 1 of 2): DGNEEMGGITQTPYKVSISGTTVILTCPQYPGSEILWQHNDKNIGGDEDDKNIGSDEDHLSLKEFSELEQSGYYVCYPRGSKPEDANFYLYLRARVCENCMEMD
Chain of recombinant human CD3eg protein (CD3 epsilon-gamma, heterodimer of CD3 epsilon and CD3 gamma) (P09693 23-116 limits assumed, chain 2 of 2): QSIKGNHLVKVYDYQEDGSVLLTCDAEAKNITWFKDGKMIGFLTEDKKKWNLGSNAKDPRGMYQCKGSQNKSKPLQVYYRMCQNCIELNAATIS

B1: DLA0316/TR01 (bispecific antibody, V domains shown)
VH 1: QEQLVESGGGLVQPGGSLKLSCKVSGFDFSNYGVSWVRQAPGKGLEWIGYIDPAFGRTYYASWVNGRFTISSHNAQNTLYLQLNSLTAADTATYFCVRVALVVAGVAYYGMDVWGPGTLVTVSS
VL 1: ADVVMTQTPASVEAAVGGTVTINCQASQNIYSYLSWYQQKPGQPPKLLIYRTSTLASGVPSRFKGSGSGTQFTLTISDLECADAATYYCQSYYYSSGSSYGAFAFGGGTEVVVK
VH 2: QVQLVESGGGVVQPGGSLRLSCAASGFTFSNAWMHWVRQAPGKGLEWVAQIKDKSQNYATYVAESVKGRFTISRADSKNSIYLQMNSLKTEDTAVYYCRYVHYAAGYGVDIWGQGTTVTVSS
VL 2: DIVMTQSPLSLPVTPGEPASISCRSSQPLVHSNRNTYLHWYQQKPGQAPRLLIYKVSNRFSGVPDRFSGSGSGTDFTLKISRVEAEDVGVYYCGQGTQVPYTFGQGTKLEIK
notes: IgG-type anti-DLL3/CD3 bispecific made by Fab arm exchange
A word on the Kd: it is the equilibrium constant for the complex coming apart. For orientation: koff means the first-order rate constant of dissociation. As usually defined, the kon is the rate constant with which the complex forms. In the case of B1, in the assay with recombinant human DLL3, the Kd was determined as 0.0353 nM, the koff came out at 8.72e-05 s⁻¹ and the association rate constant (kon) stood at 2.47e+06 M⁻¹ s⁻¹. In assay [1], this molecule displayed a Kd of 0.0199 nM, a koff of 4.96e-05 s⁻¹ and a kon of 2.49e+06 M⁻¹ s⁻¹.

B2: D30316AE03/AN121 (bispecific antibody, V domains shown)
VH 1: EVQLVESGGGLVQPGGSLRLSCAASGFTFSNYGVSWVRQAPGQGLEWMGYIDIAFGRTYYASWVTGRITINPDTSKNQFSLQLNSVTPEDTAVYYCARVALVVAGVAYYGMDVWGQGTLVTVSS
VL 1: DIVMTQSPDSLAVSLGERATINCQASQNIYSYLSWYQQKPGKAPKLLIYRTSTLASGVPDRFSGSGSGTDFTLKISRVEAEDVGVYYCQSYYYSSGSSYGAFAFGQGTKVEIK
VH 2: QVQLVESGGGLVQPGRSLRLSCAASGFTFSNAWMHWVRQAPGKGLEWVAQIKDRANSYNTYYAESVKGRFTISRDDSKNSIYLQMNSLKTEDTAVYYCRYVHYTTYAGSSFSYGVDAWGQGTTVTVSS
VL 2: DIVMTQSPLSLPVTPGEPASISCRSSQPLVHSNRNTYLHWYQQKPGQAPRLLIYKVSNRFSGVPDRFSGSGSGTDFTLKISRVEAEDVGVYYCGQGTQVPYTFGQGTKLEIK
notes: as for B1
For B2, in assay [2], the Kd is 7.55 nM, the koff stood at 0.000744 s⁻¹ and the on-rate constant (kon) was found to be 98600 M⁻¹ s⁻¹.

B3: D30841AE08/TR01 (bispecific antibody, V domains shown)
VH 1: QVTLRESGPALVKPTQTLTLTCTFSGFSLSSSYDMGWVRQAPGQGLEWMGTIYTGDYSTDYASWAKGRVTISVDTSKNQFSLKLSSVTAADTAVYYCARHTGYGYFGLWGQGTLVTVSS
VL 1: DIQLTQSPSFLSASVGDRVTITCQSTESVYGSDWLSWYQQKPGQPPKLLIYQASNLEIGVPSRFSGSGSGTDFTLTINSLEAEDAATYYCQGYYSGYIYAFGGGTKVEIK
VH 2: QVQLVESGGGVVQPGGSLRLSCAASGFTFSNAWMHWVRQAPGKGLEWVAQIKDKSQNYATYVAESVKGRFTISRADSKNSIYLQMNSLKTEDTAVYYCRYVHYAAGYGVDIWGQGTTVTVSS
VL 2: DIVMTQSPLSLPVTPGEPASISCRSSQPLVHSNRNTYLHWYQQKPGQAPRLLIYKVSNRFSGVPDRFSGSGSGTDFTLKISRVEAEDVGVYYCGQGTQVPYTFGQGTKLEIK
notes: as for B1
For the molecule B3, in the assay with recombinant human DLL3, the Kd is 0.0872 nM, the koff was found to be 0.000215 s⁻¹ and the on-rate (kon) was determined as 2.47e+06 M⁻¹ s⁻¹. In assay [1], binding was put at a Kd of 0.0737 nM, the off-rate constant (koff) was determined as 0.000191 s⁻¹ and the kon was 2.59e+06 M⁻¹ s⁻¹.

B4: DLA0841/TR01 (bispecific antibody, V domains shown)
VH 1: QEQLVESGGGLVQPEGSLTLTCTASGFSFSSSYDMCWVRQAPGKGPEWIACIYTGDGSTDYASWAKGRFTVSKASSTTVTLQMTSLAVADTATYFCARNSGYGYFGLWGPGTLVTVSS
VL 1: QVLTQTPSPVSAAVGGTVTISCQSTESVYGSDWLSWYQQKPGQPPKVLIYQASNLEIGVPSRFKGSGSGTQFTLTISGAQCDDAATYYCQGYYSGYIYAFGGGTEVVVK
VH 2: QVQLVESGGGVVQPGGSLRLSCAASGFTFSNAWMHWVRQAPGKGLEWVAQIKDKSQNYATYVAESVKGRFTISRADSKNSIYLQMNSLKTEDTAVYYCRYVHYAAGYGVDIWGQGTTVTVSS
VL 2: DIVMTQSPLSLPVTPGEPASISCRSSQPLVHSNRNTYLHWYQQKPGQAPRLLIYKVSNRFSGVPDRFSGSGSGTDFTLKISRVEAEDVGVYYCGQGTQVPYTFGQGTKLEIK
notes: as for B1
As to B4, in the assay with recombinant human DLL3, the dissociation constant Kd was determined as 0.0639 nM, the koff was determined as 0.000247 s⁻¹ and the on-rate (kon) came out at 3.87e+06 M⁻¹ s⁻¹. In assay [1], this molecule showed a dissociation constant Kd of 0.0621 nM, a koff of 0.000238 s⁻¹ and a kon of 3.83e+06 M⁻¹ s⁻¹.

B5: D30316AE03/AN119 (bispecific antibody, V domains shown)
VH 1: EVQLVESGGGLVQPGGSLRLSCAASGFTFSNYGVSWVRQAPGQGLEWMGYIDIAFGRTYYASWVTGRITINPDTSKNQFSLQLNSVTPEDTAVYYCARVALVVAGVAYYGMDVWGQGTLVTVSS
VL 1: DIVMTQSPDSLAVSLGERATINCQASQNIYSYLSWYQQKPGKAPKLLIYRTSTLASGVPDRFSGSGSGTDFTLKISRVEAEDVGVYYCQSYYYSSGSSYGAFAFGQGTKVEIK
VH 2: QVQLVESGGGLVQPGRSLRLSCAASGFTFSNAWMHWVRQAPGKGLEWVAQIKDKQNSYAAYYAESVKGRFTISRDDSKNSIYLQMNSLKTEDTAVYYCRYVHYTTYSGGFFSYGVDAWGQGTTVTVSS
VL 2: DIVMTQSPLSLPVTPGEPASISCRSSQPLVHSNRNTYLHWYQQKPGQAPRLLIYKVSNRFSGVPDRFSGSGSGTDFTLKISRVEAEDVGVYYCGQGTQVPYTFGQGTKLEIK
notes: as for B1
On to B5, for which, in assay [2], the dissociation constant Kd came out at 11 nM, the koff worked out at 0.0016 s⁻¹ and the association rate constant (kon) was 145000 M⁻¹ s⁻¹.

B6: D30316AE03/AN104 (bispecific antibody, V domains shown)
VH 1: EVQLVESGGGLVQPGGSLRLSCAASGFTFSNYGVSWVRQAPGQGLEWMGYIDIAFGRTYYASWVTGRITINPDTSKNQFSLQLNSVTPEDTAVYYCARVALVVAGVAYYGMDVWGQGTLVTVSS
VL 1: DIVMTQSPDSLAVSLGERATINCQASQNIYSYLSWYQQKPGKAPKLLIYRTSTLASGVPDRFSGSGSGTDFTLKISRVEAEDVGVYYCQSYYYSSGSSYGAFAFGQGTKVEIK
VH 2: QVQLVESGGGLVQPGRSLRLSCAASGFTFSNAWMHWVRQAPGKGLEWVAQIKDRQNGYNTYYAESVKGRFTISRDDSKNSIYLQMNSLKTEDTAVYYCRYVHYTTTYGSYYQFGVDAWGQGTTVTVSS
VL 2: DIVMTQSPLSLPVTPGEPASISCRSSQPLVHSNRNTYLHWYQQKPGQAPRLLIYKVSNRFSGVPDRFSGSGSGTDFTLKISRVEAEDVGVYYCGQGTQVPYTFGQGTKLEIK
notes: as for B1
B6: in assay [2], the Kd came to 37.3 nM, the koff came to 0.00266 s⁻¹ and the kon is 71400 M⁻¹ s⁻¹.

B7: D30841AE11/TR01 (bispecific antibody, V domains shown)
VH 1: QVTLRESGPALVKPTQTLTLTCTFSGFSLSSSYDMGWVRQAPGQGLEWMGTIYTGDYSTDYASWAKGRVTISVDTSKNQFSLKLSSVTAADTAVYYCARHTGYGYFGLWGQGTLVTVSS
VL 1: DIQLTQSPSFLSASVGDRVTITCQSTESVYGSDWLSWYQQKPGQPPKLLIYQASNLEIGVPSRFSGSGSGTDFTLTINSLEAEDAATYYCQGYYSGYSYAFGGGTKVEIK
VH 2: QVQLVESGGGVVQPGGSLRLSCAASGFTFSNAWMHWVRQAPGKGLEWVAQIKDKSQNYATYVAESVKGRFTISRADSKNSIYLQMNSLKTEDTAVYYCRYVHYAAGYGVDIWGQGTTVTVSS
VL 2: DIVMTQSPLSLPVTPGEPASISCRSSQPLVHSNRNTYLHWYQQKPGQAPRLLIYKVSNRFSGVPDRFSGSGSGTDFTLKISRVEAEDVGVYYCGQGTQVPYTFGQGTKLEIK
notes: as for B1
Turning to B7, in the assay with recombinant human DLL3, the equilibrium dissociation constant (Kd) came out at 0.172 nM, the koff was determined as 0.000325 s⁻¹ and the on-rate (kon) stood at 1.88e+06 M⁻¹ s⁻¹. For the same molecule, in assay [1], the Kd was determined as 0.142 nM, the koff is 0.000265 s⁻¹ and the kon came out at 1.86e+06 M⁻¹ s⁻¹.
